Experimental data published in patent publication US20190062438A1 (CSL, published 2019).
Residue numbers refer to the chain shown, from its start. Like-named read-outs stand apart in the source and are kept apart here.

T1: human CD131 (human, UniProt P32927 17-897)
T1 sequence: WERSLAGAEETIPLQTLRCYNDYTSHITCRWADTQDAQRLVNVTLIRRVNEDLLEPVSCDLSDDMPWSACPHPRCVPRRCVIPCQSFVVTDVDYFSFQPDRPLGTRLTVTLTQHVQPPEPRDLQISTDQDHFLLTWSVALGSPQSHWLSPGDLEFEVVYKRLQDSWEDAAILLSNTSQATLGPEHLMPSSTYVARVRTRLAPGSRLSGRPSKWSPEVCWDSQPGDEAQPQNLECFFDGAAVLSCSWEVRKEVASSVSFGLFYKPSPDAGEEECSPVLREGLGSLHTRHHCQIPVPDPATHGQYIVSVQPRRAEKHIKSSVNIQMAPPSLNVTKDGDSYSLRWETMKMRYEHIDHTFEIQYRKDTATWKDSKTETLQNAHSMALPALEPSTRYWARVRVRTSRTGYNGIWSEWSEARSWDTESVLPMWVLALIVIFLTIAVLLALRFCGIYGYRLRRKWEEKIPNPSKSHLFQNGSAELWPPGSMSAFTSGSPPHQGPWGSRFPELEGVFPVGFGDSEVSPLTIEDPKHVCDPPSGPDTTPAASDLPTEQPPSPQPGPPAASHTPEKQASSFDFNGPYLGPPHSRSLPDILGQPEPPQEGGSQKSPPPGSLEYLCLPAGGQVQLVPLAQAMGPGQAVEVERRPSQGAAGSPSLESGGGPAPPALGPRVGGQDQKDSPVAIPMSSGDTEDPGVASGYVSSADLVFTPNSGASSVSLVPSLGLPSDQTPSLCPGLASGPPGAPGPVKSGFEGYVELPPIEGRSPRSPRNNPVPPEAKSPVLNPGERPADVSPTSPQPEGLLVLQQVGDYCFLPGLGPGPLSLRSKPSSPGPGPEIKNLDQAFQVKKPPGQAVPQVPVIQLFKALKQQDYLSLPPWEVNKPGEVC

B1: 9A2-VR5 (antibody, V domains shown)
VH: EVQLLESGGGLVQPGGSLRLSCAASGFTFSHYHMLWVRQAPGKGLEWVSSIRSSGGFTYYADSVKGRFTISRDNSKNTLYLQMNSLRAEDTAVYYCARFYDSFFDIWGQGTMVTVSS
VL: DIQMTQSPSSVSASVGDRVTITCRASQGIRPFVAWYQQKPGKAPKLLIYAASSLQSGVPSRFSGSGSGTDFTLTISSLQPEDFATYYCQQANSFPITFGQGTRLEIKR
B2: 9A2-VR6 (antibody, V domains shown)
VH: B1 VH
VL: B1 VL with I29V, A34N
B3: 9A2-VR8 (antibody, V domains shown)
VH: B1 VH
VL: B1 VL with I29V, V33I, A34S
B4: 9A2-VR9 (antibody, V domains shown)
VH: B1 VH
VL: B1 VL with V33I, A34D
B5: 9A2-VR11 (antibody, V domains shown)
VH: B1 VH
VL: B1 VL with I29V, A34S
B6: 9A2-VR12 (antibody, V domains shown)
VH: B1 VH
VL: B1 VL with A34S
B7: 9A2-VR13 (antibody, V domains shown)
VH: B1 VH
VL: B1 VL with R30S, P31S, F32W, V33L, Q89G, Q90K, A91P, N92V, S93L, F94D
B8: 9A2-VR14 (antibody, V domains shown)
VH: B1 VH
VL: B1 VL with R30S, P31S, F32W, V33L, Q89G, Q90K, A91P, N92V, S93F, F94D
B9: 9A2-VR16 (antibody, V domains shown)
VH: B1 VH
VL: B1 VL with R30S, P31S, F32W, V33L, Q89G, Q90I, A91P, N92V, S93L, F94G
B10: 9A2-VR19 (antibody, V domains shown)
VH: B1 VH
VL: B1 VL with R30S, P31S, F32W, V33L, Q89G, Q90I, A91P, N92I, S93L, F94G
B11: 9A2-VR20 (antibody, V domains shown)
VH: B1 VH with S30N, H33R, M34V, L35H
VL: B1 VL with R30S, P31S, F32W, V33L
B12: 9A2-VR21 (antibody, V domains shown)
VH: B1 VH with S30M, H33R, M34V, L35H
VL: B1 VL with R30S, P31S, F32W, V33L
B13: 9A2-VR22 (antibody, V domains shown)
VH: B1 VH with S30Q, H31W, H33R, M34V, L35H
VL: B1 VL with R30S, P31S, F32W, V33L
B14: 9A2-VR23 (antibody, V domains shown)
VH: B1 VH with S30E, H31W, H33R, M34V, L35H
VL: B1 VL with R30S, P31S, F32W, V33L
B15: 9A2-VR26 (antibody, V domains shown)
VH: B1 VH with S30I, H33R, M34V, L35H
VL: B1 VL with R30S, P31S, F32W, V33L
B16: 9A2-VR27 (antibody, V domains shown)
VH: B1 VH with S30T, H33R, M34V, L35H
VL: B1 VL with R30S, P31S, F32W, V33L
B17: 9A2-VR28 (antibody, V domains shown)
VH: B1 VH with S30V, H33R, M34V, L35H
VL: B1 VL with R30S, P31S, F32W, V33L
B18: 9A2-VR31 (antibody, V domains shown)
VH: B1 VH with R52S, S53G, S54A, G55Q, G56W, F57S
VL: B1 VL with R30S, P31S, F32W, V33L
B19: 9A2-VR32 (antibody, V domains shown)
VH: B1 VH with R52S, S53G, G55V, G56R, F57S
VL: B1 VL with R30S, P31S, F32W, V33L
B20: 9A2-VR33 (antibody, V domains shown)
VH: B1 VH with R52N, S53G, G56W, F57T
VL: B1 VL with R30S, P31S, F32W, V33L
B21: 9A2-VR34 (antibody, V domains shown)
VH: B1 VH with R52S, S53G, G55H, G56F, F57P
VL: B1 VL with R30S, P31S, F32W, V33L
B22: 9A2-VR24.56 (antibody, V domains shown)
VH: B1 VH with S30P, H31W, H33R, M34V, L35H, A61N, D62P, S63A, K65R
VL: B1 VL with R30S, P31S, F32W, V33L
B23: 9A2-VR24.57 (antibody, V domains shown)
VH: B1 VH with S30P, H31W, H33R, M34V, L35H, A61N, D62P, S63K, G66H
VL: B1 VL with R30S, P31S, F32W, V33L
B24: 9A2-VR24.122 (antibody, V domains shown)
VH: B1 VH with S30P, H31W, H33R, M34V, L35H, A61N, D62S, S63E
VL: B1 VL with R30S, P31S, F32W, V33L
B25: 9A2-VR24.124 (antibody, V domains shown)
VH: B1 VH with S30P, H31W, H33R, M34V, L35H, A61T, D62P, K65R
VL: B1 VL with R30S, P31S, F32W, V33L
B26: 9A2-VR24.131 (antibody, V domains shown)
VH: B1 VH with S30P, H31W, H33R, M34V, L35H, A61N, D62P, K65M
VL: B1 VL with R30S, P31S, F32W, V33L
B27: 9A2-VR39.01 (antibody, V domains shown)
VH: B1 VH with S30F, H31W, Y32F, M34H, L35V, R52N, S53G, S54R, G56R, F57V
VL: B1 VL with R30S, P31S, F32W, V33L
B28: 9A2-VR39.02 (antibody, V domains shown)
VH: B1 VH with S30Y, H31W, L35I, R52N, S53G, S54R, G56R, F57V
VL: B1 VL with R30S, P31S, F32W, V33L
B29: 9A2-VR39.04 (antibody, V domains shown)
VH: EVQLLESGGGLVQPGGSLRLSCAASGFTFNWFQHIWVRQAPGKGLEWVSSINGRGRVTYYADSVKGRFTISRDNSKNTLYLQMNSLRAEDTAVYYCARFYDSFFDIWGQGTMVTVSS
VL: B1 VL with R30S, P31S, F32W, V33L
B30: 9A2-VR39.05 (antibody, V domains shown)
VH: B29 VH with N30P, Q33H, H34T, I35V
VL: B1 VL with R30S, P31S, F32W, V33L
B31: 9A2-VR39.06 (antibody, V domains shown)
VH: B29 VH with N30Q, F32Y, Q33H, H34Y
VL: B1 VL with R30S, P31S, F32W, V33L
B32: 9A2-VR39.11 (antibody, V domains shown)
VH: B29 VH with N30Q, W31E, Q33H, H34T
VL: B1 VL with R30S, P31S, F32W, V33L
B33: 9A2-VR39.12 (antibody, V domains shown)
VH: B29 VH with N30F, Q33N, H34T, I35V
VL: B1 VL with R30S, P31S, F32W, V33L
B34: 9A2-VR39.16 (antibody, V domains shown)
VH: B29 VH with N30Q, Q33N, H34I, I35V
VL: B1 VL with R30S, P31S, F32W, V33L
B35: 9A2-VR39.17 (antibody, V domains shown)
VH: B29 VH with N30P, W31F, F32Y, Q33H, H34K, I35V
VL: B1 VL with R30S, P31S, F32W, V33L
B36: 9A2-VR39.18 (antibody, V domains shown)
VH: B29 VH with N30P, W31G, F32Y, Q33V, H34W
VL: B1 VL with R30S, P31S, F32W, V33L
B37: 9A2-VR39.19 (antibody, V domains shown)
VH: B29 VH with N30Q, W31Y, Q33N, H34V
VL: B1 VL with R30S, P31S, F32W, V33L
B38: 9A2-VR39.21 (antibody, V domains shown)
VH: B29 VH with N30Q, W31H, F32Y, Q33H, H34T, I35V
VL: B1 VL with R30S, P31S, F32W, V33L

Tests used:
human CD131 [1] = target: T1, human CD131; assay: cell-based or functional assay
human CD131 [2] = target: T1, human CD131; assay: cell-based or functional assay; remark: listed apart in the source

Binder	IC50 GM-CSF, TF-1 proliferation (human CD131 [1]) [nM]	pStat5 IC50 GM-CSF, TF-1 bla reporter (human CD131 [1]) [nM]	IC50 GM-CSF, TF-1 proliferation (human CD131 [2]) [nM]
B1	87	–	–
B2	250	–	–
B3	57.7	–	–
B4	72.7	–	–
B5	353	–	–
B6	198	–	–
B7	> 1000	–	–
B8	> 1000	–	–
B9	> 1000	–	–
B10	> 1000	–	–
B11	79.3	–	–
B12	99.8	–	–
B13	39.9	–	–
B14	60	24	–
B15	4.6	23.6	–
B16	4.9	8.5	–
B17	47.9	–	–
B18	233	–	–
B19	31.2	–	–

Binder	IC50 GM-CSF, TF-1 proliferation (human CD131 [1]) [nM]	pStat5 IC50 GM-CSF, TF-1 bla reporter (human CD131 [1]) [nM]	IC50 GM-CSF, TF-1 proliferation (human CD131 [2]) [nM]
B20	602	–	–
B21	184	–	–
B22	–	–	0.48
B23	–	–	0.33
B24	–	–	0.66
B25	–	–	0.54
B26	–	–	1.06
B27	–	–	0.51
B28	–	–	0.46
B29	–	–	30.4
B30	–	–	0.96
B31	–	–	1.85
B32	–	–	18.6
B33	–	–	25.1
B34	–	–	6.07
B35	–	–	0.67
B36	–	–	> 1000
B37	–	–	7.26
B38	–	–	0.96
